Assay results published in patent US20250243279A1 (published 2025).

How the values were obtained:
Assay in all cases: Carterra LSA SPR
[1] = target: 1H7
[2] = target: 1D9
[3] = target: 1C8
[4] = target: 1A2
[5] = target: 1B6
[6] = target: 1D8
[7] = target: 1B11-2
[8] = target: 1D7
[9] = target: 1E1

- Kd [1]: 75 nM
- Kd [2]: 12.8 nM
- Kd [3]: 20.6 nM
- Kd [4]: 2.13 nM
- Kd [5]: 5.85 nM
- Kd [6]: 46.7 nM
- Kd [7]: 2.83 nM
- Kd [8]: 0.344 nM
- Kd [9]: 12.2 nM
B1: huMICA (ligand)
chain: EPHSLRYNLTVLSWDGSVQSGFLTEVHLDGQPFLRCDRQKCRAKPQGQWAEDVLGNKTWDRETRDLTGNGKDLRMTLAHIKDQKEGLHSLQEIRVCEIHEDNSTRSSQHFYYDGELFLSQNLETKEWTMPQSSRAQTLAMNVRNFLKEDAMKTKTHYHAMHADCLQELRRYLKSGVVLRRTVPPMVNVTRSEASEGNITVTCRASGFYPWNITLSWRQDGVSLSHDTQQWGDVLPDGNGTYQTWVATRICQGEEQRFTCYMEHSGNHSTHPVPSGKVLVLQSHWQTFHVSAVAAAAIFVIIIFYVRCCKKKTSAAEGPELVSLQVLDQHPVGTSDHRDATQLGFQPLMSDLGSTGSTEGA
